Experimental findings from patent CN113004416A (HEFEI HANKEMAB BIOTECHNOLOGY CO LTD, dated 2021) are described below.

For assay [1], the target named is 细胞表面4-1BB抗原 (human 4-1BB on CHO-K1-Hu4-1BB stable cells; CD137 on lymphocytes) (human). Briefly: flow cytometry on CHO-K1-Hu4-1BB cells. On the technique in general: A flow cytometer gives signals particle by particle.
The target of assay [2] is 人4-1BB抗原 (recombinant, purified from 293 cell supernatant by Protein A) (human). Briefly: ELISA on coated 4-1BB antigen. In general terms: An ELISA detects its analyte on a solid surface through an enzyme-linked reagent.
In assay [3] the target is T1, 细胞表面HER2抗原 (HER2 on SKOV3, N87, MCF-7/HER2, MCF-7, JIMT-1, AC16 cells) (human, UniProt P04626 23-1255).
T1 construct: whole, on cells
The experiment in a line: flow cytometry on JIMT-1 cells.

In assay [4] the target is T2, HER2抗原 (human HER2/ErbB2 in lysate of T6-17 cells, coated on ELISA plate) (human, UniProt P04626 23-1255).
T2 construct: The antigen is a crude detergent lysate of cells with high membrane expression of human HER2, not a purified protein
The experiment in a line: ELISA on coated T6-17 cell lysate.

The target in assay [5] is T1, 细胞表面HER2抗原 (HER2 on SKOV3, N87, …). The experiment in a line: flow cytometry on AC16 cells.
For assay [6] the target is unchanged. Briefly: flow cytometry on MCF-7/HER2 cells.
Assay [7] shares this target. Briefly: flow cytometry on N87 cells.
For assay [8] the target is unchanged. Briefly: flow cytometry on SKOV3 cells.

Chain of 细胞表面4-1BB抗原 (human 4-1BB on CHO-K1-Hu4-1BB stable cells; CD137 on lymphocytes) (human) (chain, as listed by the source): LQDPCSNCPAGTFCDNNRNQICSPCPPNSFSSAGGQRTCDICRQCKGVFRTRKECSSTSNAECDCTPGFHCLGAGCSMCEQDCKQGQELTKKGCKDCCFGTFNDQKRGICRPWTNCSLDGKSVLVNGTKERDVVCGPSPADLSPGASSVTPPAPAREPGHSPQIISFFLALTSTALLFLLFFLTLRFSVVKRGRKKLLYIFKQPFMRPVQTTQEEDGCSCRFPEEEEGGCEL
Chain of 人4-1BB抗原 (recombinant, purified from 293 cell supernatant by Protein A) (human) (chain, as listed by the source): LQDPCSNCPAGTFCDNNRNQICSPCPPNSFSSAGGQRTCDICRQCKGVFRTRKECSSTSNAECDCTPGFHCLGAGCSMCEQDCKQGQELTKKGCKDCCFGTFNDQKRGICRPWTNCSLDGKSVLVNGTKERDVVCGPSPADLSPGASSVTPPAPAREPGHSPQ

B1: 抗人4-1BB单克隆抗体 HuB6 (antibody, V domains shown)
VH: QVQLQESGPGLVKPSETLSITCTVSGSSLTSYGVHWVRQPPGKGLEGLGVIWPGGSTNYNSALMSRLTISKDNSKSQVSLKMSSLTAADTAMYYCARVTGTWYFDVWGQGTTVTVSS
VL: DIQMTQSPSSLSASLGDRVTISCSASQGISNYLNWYQQKPDGTVKLLIYYTSTLHSGVPSRFSGSGSGTDFTLTISSLQPEDVATYYCQQYSKLPWTFGGGTKLEIK
notes: Monoclonal antibody; also called Hanke10F4 (专利申请201911105611.1)
As a reminder, the EC50 is the concentration at which the effect is half-maximal. Regarding B1, the half-maximal effective concentration (EC50) stood at 2.49 µg/mL in assay [1] and 6.34 ng/mL in assay [2].

B2: 抗人HER2单克隆抗体 Trastuzumab (Herceptin) (antibody, V domains shown)
VH: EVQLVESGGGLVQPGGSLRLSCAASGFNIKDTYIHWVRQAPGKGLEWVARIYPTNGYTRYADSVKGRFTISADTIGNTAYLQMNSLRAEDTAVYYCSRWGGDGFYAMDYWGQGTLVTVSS
VL: DIQMTQSPSSLSASVGDRVTITCRASQDVNTAVAWYQQKPGKAPKLLIYSASFLYSGVPSRFSGSRSGTDFTLTISSLQPEDFATYYCQQHYTTPPTFGGGTKLTVLG
notes: IgG1, kappa; also called 曲妥珠单抗
On to B2, for which the 50% effective concentration (EC50) worked out at 1.1 µg/mL in assay [3]; 0.104 µg/mL in assay [4]; 0.851 µg/mL in assay [5]; 1.39 µg/mL in assay [6]; 2 µg/mL in assay [7]; 1.23 µg/mL in assay [8].
